The target in the assay is T1, recombinant mouse CD74 (mouse, UniProt P04441 56-279, limits assumed).
T1 construct: Bought (Abcam); also called recombinant CD74
T1 sequence (looked up): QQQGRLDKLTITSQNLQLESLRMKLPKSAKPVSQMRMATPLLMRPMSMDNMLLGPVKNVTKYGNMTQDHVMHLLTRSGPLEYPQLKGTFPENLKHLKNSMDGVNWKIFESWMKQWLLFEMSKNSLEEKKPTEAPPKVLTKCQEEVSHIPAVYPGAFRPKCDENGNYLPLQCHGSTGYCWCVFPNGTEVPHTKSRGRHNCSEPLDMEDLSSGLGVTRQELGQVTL
Nature of the assay: chemiluminescent dot-blotting, peptide on nitrocellulose, recombinant CD74 in solution. On the procedure: Membranes were washed and incubated with primary mouse anti-CD74 or anti-MIF (both from Abcam, Cambridge, UK), washed and incubated with secondary anti-mouse IgG-HRP. Immunoreactivity was determined using the ECL Western Blotting Substrate (Millipore, Billerica, Mass.), and signal was detected in a trans-illuminator Uvitec, Cambridge, UK).

Data on one molecule can be found in patent US20210147534A1 (RECEPTA BIOPHARMA S A, published 2021).

No end group written: not given here.

B1: Rb10A1 (peptide)
peptide: AARGETARATFAYWGQG-NH2
notes: Linear peptide; N-terminal Cys of Rb10 replaced by alanine; also called A1C
Take B1: the binding result was “no binding”.
